Test results as given in article PMC5809743.

Molecular target: FMDV protomer (VP0, VP3 and VP1) from full-length capsid precursor P1-2A processed by 3C protease (foot-and-mouth disease virus, strain O1 Manisa)
Test: sucrose density gradient sedimentation

Substance: FMDV protomer (VP0, VP3 and VP1) from full-length capsid precursor P1-2A processed by 3C protease (complex)
- reduction in pentamer formation with 17-DMAG, against no drug: 50%
- stoichiometry N: 5
